Experimental findings from PMC10671485 are described below.

What all share (assay): fluorescence anisotropy
In general terms: In fluorescence polarisation assays a small probe gives low polarisation when free and higher when bound to something large.

Data set [1] deals with POLRMT T993E (phosphomimic) (Homo sapiens). The conditions noted are these: N=4; 20 mM Tris-HCl EDTA buffer (pH and salt not given), 3 nM labeled duplex, 0-20 nM POLRMT, 25 °C; fit with Hill slope.
For data set [2], the system named is POLRMT T315E (phosphomimic) (Homo sapiens). To be noted: N=5; 20 mM Tris-HCl EDTA buffer (pH and salt not given), 3 nM labeled duplex, 0-20 nM POLRMT, 25 °C; fit with Hill slope.
The test system of the next data set is POLRMT WT (Homo sapiens). To be noted: no TFAM or TFB2M mentioned; N=7; 20 mM Tris-HCl EDTA buffer (pH and salt not given), 3 nM labeled duplex, 0-20 nM POLRMT, 25 °C; fit with Hill slope.
Data set [3] concerns POLRMT K402Q (acetyl mimic) (Homo sapiens). The conditions noted are these: N=5; 20 mM Tris-HCl EDTA buffer (pH and salt not given), 3 nM labeled duplex, 0-20 nM POLRMT, 25 °C; fit with Hill slope.

On to light strand promoter (LSP) duplex, for which the Kd in data set [1] amounted to 2.87 nM; in data set [2], 1.55 nM; in the data set with POLRMT WT (Homo sapiens), 3.45 nM; in data set [3] it was 3.02 nM.

Broadly, the Kd is the equilibrium constant for the complex coming apart.
